# Experimental data: patent US20210085770A1
# Biological target: recombinant SARS-CoV-2 S1 protein expressed from insect (Sf9) cells (S1-His, SinoBiological, Cat. No. 40591-V08B1) (SARS-CoV-2) (UniProt P0DTC2)
# Assay: ELISA, coated insect-cell S1-His, HRP-conjugated lectin 10 ug/mL
# Peanut Agglutinin (PNA), lectin from Arachis hypogaea, sequence (P02872 24-259 limits assumed): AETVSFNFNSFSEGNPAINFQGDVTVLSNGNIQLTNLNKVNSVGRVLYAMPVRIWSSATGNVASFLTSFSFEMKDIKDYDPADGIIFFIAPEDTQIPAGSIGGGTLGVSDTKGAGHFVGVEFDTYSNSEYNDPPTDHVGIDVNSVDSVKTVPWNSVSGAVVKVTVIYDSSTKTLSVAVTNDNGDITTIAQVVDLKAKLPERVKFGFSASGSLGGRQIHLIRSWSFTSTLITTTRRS
# Maclura pomifera lectin (MPA), sequence (P18674 whole entry): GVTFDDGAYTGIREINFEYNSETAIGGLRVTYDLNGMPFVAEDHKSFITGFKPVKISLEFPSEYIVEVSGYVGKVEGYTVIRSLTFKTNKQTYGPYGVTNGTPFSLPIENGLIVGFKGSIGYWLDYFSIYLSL
# Maclura pomifera lectin (MPA), sequence (P18676 whole entry, further chain): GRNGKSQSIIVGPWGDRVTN
row,Substance,mean fold increase of OD450 [fold]
1,Salvia sclarea lectin (SSA),3.97
2,Maclura pomifera lectin (MPA),7.51
3,"Peanut Agglutinin (PNA), lectin from Arachis hypogaea (from UniProt P02872 24-259)",22.7

# Biological target: recombinant SARS-CoV-2 S1 protein expressed from insect (Sf9) cells (S1-His, SinoBiological, Cat. No. 40591-V08B1) (SARS-CoV-2) (UniProt P0DTC2)
# Assay: not given
row,Substance,mean fold increase of OD450 [fold]
1,mouse monoclonal IgG3 antibody JAA-F11,3.32
2,"Tn218 IgM anti-Tn monoclonal antibody (Abnova, Cat. No. MAB6198)",1.77
3,"SPM320 IgM anti-TF monoclonal antibody (Abnova, Cat. No. MAB13207)",5.5
